Key:
Assay in all cases: cell-based or functional assay
[1] = biological target: HIV-1 426c.SM (N276D) Env on Env-pseudotyped virus produced in 293s/GnTI-/- cells (Man5-enrichment) (HIV-1)
[2] = biological target: CH0505TF.gly4 Env, Env-pseudotyped virus produced in 293S GnTI- cells (Man5-enriched) (HIV-1)
[3] = biological target: HIV-1 clade C strain 426c Env on Env-pseudotyped virus produced in 293s/GnTI-/- cells (Man5-enrichment) (HIV-1)
[4] = biological target: HIV-1 clade C strain 426c Env on Env-pseudotyped virus produced in 293T cells (HIV-1)
[5] = biological target: HIV-1 Env 426c.DM (N460D.N463D), Env-pseudotyped virus produced in 293S GnTI- cells (Man5-enriched) (HIV-1 clade C strain 426c)
[6] = biological target: CH0505TF Env, Env-pseudotyped virus produced in 293T cells (HIV-1)
[7] = biological target: HIV-1 426c.DM (N460D/N463D) Env on Env-pseudotyped virus produced in 293T cells (HIV-1)
[8] = biological target: CH0505TF.gly3.276 Env, Env-pseudotyped virus produced in 293T cells (HIV-1)
[9] = biological target: CH0505.w4.3 Env, Env-pseudotyped virus produced in 293T cells (HIV-1)
[10] = biological target: HIV-1 Env 426c.TM (N276D.N460D.N463D), Env-pseudotyped virus produced in 293S GnTI- cells (Man5-enriched) (HIV-1 clade C strain 426c)
[11] = biological target: CH0505TF.gly3.276 Env, Env-pseudotyped virus produced in 293S GnTI- cells (Man5-enriched) (HIV-1)
[12] = biological target: CH0505TF.gly4 Env, Env-pseudotyped virus produced in 293T cells (HIV-1)
[13] = biological target: CH0505TF.gly3.461 Env, Env-pseudotyped virus produced in 293T cells (HIV-1)
[14] = biological target: HIV-1 Env 426c.SM (N276D), Env-pseudotyped virus produced in 293S GnTI- cells (Man5-enriched) (HIV-1 clade C strain 426c)
[15] = biological target: HIV-1 426c.DM (N460D/N463D) Env on Env-pseudotyped virus produced in 293s/GnTI-/- cells (Man5-enrichment) (HIV-1)
[16] = biological target: HIV-1 426c.TM (N276D/N460D/N463D) Env on Env-pseudotyped virus produced in 293T cells (HIV-1)
[17] = biological target: HIV-1 426c.TM (N276D/N460D/N463D) Env on Env-pseudotyped virus produced in 293s/GnTI-/- cells (Man5-enrichment) (HIV-1)
[18] = biological target: HIV-1 426c.SM (N276D) Env on Env-pseudotyped virus produced in 293T cells (HIV-1)
[19] = biological target: CH0505TF.G458Y Env, Env-pseudotyped virus produced in 293T cells (HIV-1)
[20] = biological target: HIV-1 Env 426c, Env-pseudotyped virus produced in 293T cells (HIV-1 clade C strain 426c)
[21] = biological target: HIV-1 Env 426c, Env-pseudotyped virus produced in 293S GnTI- cells (Man5-enriched) (HIV-1 clade C strain 426c)
[22] = biological target: HIV-1 Env 426c.SM (N276D), Env-pseudotyped virus produced in 293T cells (HIV-1 clade C strain 426c)
[23] = biological target: HIV-1 Env 426c.TM4 (S278R.G471S.N460D.N463D), Env-pseudotyped virus produced in 293S GnTI- cells (Man5-enriched) (HIV-1 clade C strain 426c)
[24] = biological target: CH0505TF.gly3.197 Env, Env-pseudotyped virus produced in 293T cells (HIV-1)
[25] = biological target: HIV-1 Env 426c.TM (N276D.N460D.N463D), Env-pseudotyped virus produced in 293T cells (HIV-1 clade C strain 426c)
[26] = biological target: HIV-1 Env 426c.DM (N460D.N463D), Env-pseudotyped virus produced in 293T cells (HIV-1 clade C strain 426c)
[27] = biological target: CH0505TF Env, Env-pseudotyped virus produced in 293S GnTI- cells (Man5-enriched) (HIV-1)
[28] = biological target: CH0505TF.G458Y Env, Env-pseudotyped virus produced in 293S GnTI- cells (Man5-enriched) (HIV-1)
[29] = biological target: CH0505TF.gly3.461 Env, Env-pseudotyped virus produced in 293S GnTI- cells (Man5-enriched) (HIV-1)
[30] = biological target: HIV-1 Env 426c.TM4 (S278R.G471S.N460D.N463D), Env-pseudotyped virus produced in 293T cells (HIV-1 clade C strain 426c)
[31] = biological target: CH0505TF.gly3.197 Env, Env-pseudotyped virus produced in 293S GnTI- cells (Man5-enriched) (HIV-1)

3074 (antibody)
9.4 µg/mL: IC50 (µg/ml) in TZM-bl [19]
4.8 µg/mL: IC50 (µg/ml) in TZM-bl [11]
23 µg/mL: ID50/IC50 in TZM-bl [1] | IC50 (µg/ml) in TZM-bl [14]
> 25 µg/mL: ID50/IC50 in TZM-bl [3] | ID50/IC50 in TZM-bl [4] | IC50 (µg/ml) in TZM-bl [5] | IC50 (µg/ml) in TZM-bl [6] | ID50/IC50 in TZM-bl [7] | IC50 (µg/ml) in TZM-bl [10] | ID50/IC50 in TZM-bl [15] | ID50/IC50 in TZM-bl [16] | ID50/IC50 in TZM-bl [17] | ID50/IC50 in TZM-bl [18] | IC50 (µg/ml) in TZM-bl [20] | IC50 (µg/ml) in TZM-bl [21] | IC50 (µg/ml) in TZM-bl [22] | IC50 (µg/ml) in TZM-bl [23] | IC50 (µg/ml) in TZM-bl [24] | IC50 (µg/ml) in TZM-bl [25] | IC50 (µg/ml) in TZM-bl [26] | IC50 (µg/ml) in TZM-bl [27] | IC50 (µg/ml) in TZM-bl [28] | IC50 (µg/ml) in TZM-bl [30] | IC50 (µg/ml) in TZM-bl [31]
7.3 µg/mL: IC50 (µg/ml) in TZM-bl [13]
14.1 µg/mL: IC50 (µg/ml) in TZM-bl [8]
0.02 µg/mL: IC50 (µg/ml) in TZM-bl [9]
5.6 µg/mL: IC50 (µg/ml) in TZM-bl [2]
10.2 µg/mL: IC50 (µg/ml) in TZM-bl [29]
7.2 µg/mL: IC50 (µg/ml) in TZM-bl [12]

CH01 (antibody)
1 µg/mL: IC50 (µg/ml) in TZM-bl [11] | IC50 (µg/ml) in TZM-bl [19]
8.8 µg/mL: IC50 (µg/ml) in TZM-bl [12]
4.1 µg/mL: IC50 (µg/ml) in TZM-bl [6]
> 20 µg/mL: IC50 (µg/ml) in TZM-bl [9]
0.22 µg/mL: IC50 (µg/ml) in TZM-bl [31]
7.7 µg/mL: IC50 (µg/ml) in TZM-bl [13]
5.7 µg/mL: IC50 (µg/ml) in TZM-bl [8]
0.8 µg/mL: IC50 (µg/ml) in TZM-bl [27]
0.09 µg/mL: IC50 (µg/ml) in TZM-bl [29]
> 25 µg/mL: ID50/IC50 in TZM-bl [1] | ID50/IC50 in TZM-bl [3] | ID50/IC50 in TZM-bl [4] | IC50 (µg/ml) in TZM-bl [5] | ID50/IC50 in TZM-bl [7] | IC50 (µg/ml) in TZM-bl [10] | IC50 (µg/ml) in TZM-bl [14] | ID50/IC50 in TZM-bl [15] | ID50/IC50 in TZM-bl [16] | ID50/IC50 in TZM-bl [17] | ID50/IC50 in TZM-bl [18] | IC50 (µg/ml) in TZM-bl [20] | IC50 (µg/ml) in TZM-bl [21] | IC50 (µg/ml) in TZM-bl [22] | IC50 (µg/ml) in TZM-bl [23] | IC50 (µg/ml) in TZM-bl [25] | IC50 (µg/ml) in TZM-bl [26] | IC50 (µg/ml) in TZM-bl [30]
3.8 µg/mL: IC50 (µg/ml) in TZM-bl [24]
0.1 µg/mL: IC50 (µg/ml) in TZM-bl [2] | IC50 (µg/ml) in TZM-bl [28]

10-1074 (antibody)
0.12 µg/mL: ID50/IC50 in TZM-bl [18] | IC50 (µg/ml) in TZM-bl [22]
0.05 µg/mL: ID50/IC50 in TZM-bl [4] | IC50 (µg/ml) in TZM-bl [20]
0.04 µg/mL: ID50/IC50 in TZM-bl [1] | IC50 (µg/ml) in TZM-bl [14]
0.1 µg/mL: ID50/IC50 in TZM-bl [7] | IC50 (µg/ml) in TZM-bl [26]
> 25 µg/mL: IC50 (µg/ml) in TZM-bl [2] | IC50 (µg/ml) in TZM-bl [6] | IC50 (µg/ml) in TZM-bl [8] | IC50 (µg/ml) in TZM-bl [9] | IC50 (µg/ml) in TZM-bl [11] | IC50 (µg/ml) in TZM-bl [12] | IC50 (µg/ml) in TZM-bl [13] | IC50 (µg/ml) in TZM-bl [19] | IC50 (µg/ml) in TZM-bl [24] | IC50 (µg/ml) in TZM-bl [27] | IC50 (µg/ml) in TZM-bl [28] | IC50 (µg/ml) in TZM-bl [29] | IC50 (µg/ml) in TZM-bl [31]
0.03 µg/mL: ID50/IC50 in TZM-bl [3] | IC50 (µg/ml) in TZM-bl [5] | IC50 (µg/ml) in TZM-bl [10] | ID50/IC50 in TZM-bl [15] | ID50/IC50 in TZM-bl [17] | IC50 (µg/ml) in TZM-bl [21]
0.16 µg/mL: ID50/IC50 in TZM-bl [16] | IC50 (µg/ml) in TZM-bl [25]
0.02 µg/mL: IC50 (µg/ml) in TZM-bl [23]
0.06 µg/mL: IC50 (µg/ml) in TZM-bl [30]

PGT151 (antibody)
0.13 µg/mL: IC50 (µg/ml) in TZM-bl [2]
> 5 µg/mL: IC50 (µg/ml) in TZM-bl [11] | IC50 (µg/ml) in TZM-bl [27] | IC50 (µg/ml) in TZM-bl [28] | IC50 (µg/ml) in TZM-bl [29] | IC50 (µg/ml) in TZM-bl [31]
1.9 µg/mL: ID50/IC50 in TZM-bl [1] | IC50 (µg/ml) in TZM-bl [14]
0.007 µg/mL: IC50 (µg/ml) in TZM-bl [8]
2.2 µg/mL: IC50 (µg/ml) in TZM-bl [5] | ID50/IC50 in TZM-bl [15]
> 25 µg/mL: IC50 (µg/ml) in TZM-bl [9]
1.6 µg/mL: ID50/IC50 in TZM-bl [3] | IC50 (µg/ml) in TZM-bl [21]
2.9 µg/mL: IC50 (µg/ml) in TZM-bl [23]
0.01 µg/mL: ID50/IC50 in TZM-bl [4] | IC50 (µg/ml) in TZM-bl [6] | ID50/IC50 in TZM-bl [7] | IC50 (µg/ml) in TZM-bl [12] | IC50 (µg/ml) in TZM-bl [13] | ID50/IC50 in TZM-bl [16] | ID50/IC50 in TZM-bl [18] | IC50 (µg/ml) in TZM-bl [19] | IC50 (µg/ml) in TZM-bl [20] | IC50 (µg/ml) in TZM-bl [22] | IC50 (µg/ml) in TZM-bl [24] | IC50 (µg/ml) in TZM-bl [25] | IC50 (µg/ml) in TZM-bl [26] | IC50 (µg/ml) in TZM-bl [30]
2.5 µg/mL: IC50 (µg/ml) in TZM-bl [10] | ID50/IC50 in TZM-bl [17]
